The subject of this data set is ORC (origin recognition complex) (Saccharomyces cerevisiae). Description: EMSA. The settings on record: 25 mM Tris-HCl pH 8.0, 5 mM MgCl2, 150 mM KCl, 40 ug BSA, 5% glycerol, 5 mM DTT, 1 ug calf-thymus DNA, 2 mM ATP; 5 pM probe, ORC 0.3-30 nM; 25 C 20 min; 3.5% …. In general terms: In EMSA bound probe runs differently from free probe, usually more slowly.

Some results are limits rather than exact numbers.

As usually defined, the Kd is the free concentration of one partner at which half of the binding sites on the other are occupied at equilibrium, for simple one-to-one binding. In turn, ARS219.5 probe came in with a Kd of more than 419 nM.
The result for ARS1215 probe reads 55.8 nM; that for ARS317 (HMR-E) probe, 7.22 nM; that for ARS1529.5 probe, 192 nM.
ARS1413 probe: the Kd is 419 nM.
Next, ARS422 probe: 9.85 nM; ARS416 (ARS1) probe: 35.1 nM; ARS305 probe: 33.1 nM.
The result for ARS911 probe reads 87.3 nM; that for ARS1021 probe, 17.9 nM; that for ARS1513 probe, 56.3 nM.
Take ARS1625 probe: the Kd amounted to 8.67 nM.
The substance ARS105 probe returned a dissociation constant Kd of more than 419 nM.
In turn, ARS1521 probe returned a Kd of 90.1 nM.
The result for ARS1601 probe reads 32.8 nM; that for ARS824 probe, 38.1 nM; that for ARS716 probe, 39.2 nM.
The result for ARS1004 probe reads 92.3 nM; that for ARS512 probe, 55.1 nM; that for ARS423 probe, 6.76 nM.
The substance ARS1528 probe came in with a dissociation constant Kd of more than 419 nM.
The result for ARS818 probe reads 94 nM.
ARS516 probe showed a Kd of 27.8 nM.
The result for ARS1329 probe reads 76.8 nM; that for ARS1405 probe, 97.2 nM.
The result for ARS1011 probe reads 11.1 nM; that for ARS201 probe, 20.1 nM; that for ARS1323 probe, 58.6 nM.
Regarding ARS428 probe, the equilibrium dissociation constant (Kd) turned out to be 91.6 nM.
ARS728 probe had a Kd of 8.38 nM.
Next, ARS920 probe: 8.65 nM.
Substance ARS1320 probe had a Kd of 20.9 nM.
The result for ARS1114 probe reads 33.3 nM; that for ARS1420 probe, 17.8 nM; that for ARS1015 probe, 63.1 nM.
Next, ARS514 probe: 4.12 nM; ARS604 probe: 61 nM.
The result for ARS214 probe reads 41.3 nM; that for ARS1325 probe, 63 nM; that for ARS822 probe, 260 nM.
On to ARS1631 probe, for which the Kd is 26.8 nM.
Turning to ARS720 probe, the equilibrium dissociation constant (Kd) stood at 33.9 nM.
ARS1307 probe registered a Kd of 83.7 nM.
Next, ARS1123 probe: 12.3 nM; ARS1005 probe: more than 419 nM; ARS1332 probe: 35.3 nM.
